Experimental data: the supplement of paper PMC10567573
± gives the standard deviation.

Experiment: protein stability index of a GFP-peptide fusion (GPS, HEK-293T) (PSI 1-6); higher = more stable
[1] = treatment: DMSO, c terminus: a fixed tail appended
[2] = treatment: MLN4924 1 uM, 8 h, c terminus: a fixed tail appended
[3] = treatment: DMSO, c terminus: native
[4] = treatment: MLN4924 1 uM, 8 h, c terminus: native
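Also: 24-mer peptide tiles fused after GFP, lentivirally expressed, FACS-sorted into six equal bins by GFP/DsRed ratio, decoded by Illumina sequencing, PSI is the read-weighted mean bin number.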

Sequence | protein stability index [1] | protein stability index [2] | protein stability index [3] | protein stability index [4]
ELWIYNMETGRWKKINTEGDVPPS [KLHDC2] | 3.43 ± 0.2 | 3.61 ± 0.27 |  | 
EMEEELRYAPLSFRNPMMSKLRNY [VTI1B] | 2.78 ± 0.28 | 3.01 ± 0.25 |  | 
EMRFAKMPDEPVEAPALPAPAAPM [BRD3] | 4.66 ± 0.078 | 4.8 ± 0.24 |  | 
ENHPQESKGQPRSQEESEEGEEDA [CHGB] | 5.79 ± 0.094 | 5.64 ± 0.22 |  | 
EPPKPTFPAYTQSTASTTSTTNST [ZNF207] | 5.39 ± 0.3 | 5.04 ± 0.21 |  | 
EPSELDNPFQDPAVIQHRPSRQYA [SCAMP3] | 4.67 ± 0.22 | 4.77 ± 0.13 |  | 
EQLSGAGYRVSAALEEADKMFLRT [EID1] | 3.72 ± 0.22 | 4.1 ± 0.43 |  | 
ERCSDSDEEKKARRGRSPKGEFKD [CLINT1] | 5.43 ± 0.27 | 5.3 ± 0.51 |  | 
EREKVTPLMVKGFRDAAEEGGTAV [SEPHS2] | 5.24 ± 0.18 | 5.12 ± 0.16 |  | 
ERHTMDLTVEGFQSWMWRGLTFLL [TMEM120A] | 2.11 ± 0.41 | 2.28 ± 0.092 |  | 
ERLNKEYQEIFQQLQRSWVKMDQK [TRIM43] | 3.23 ± 0.3 | 3.39 ± 0.55 |  | 
ERPAQRDCSFPGLPRHQDQPHHQP [TRAF3IP2] | 4.72 ± 0.15 | 4.64 ± 0.28 |  | 
ERQLKVMASDHREALLDRESENAS [LRRC45] | 5.41 ± 0.3 | 5.33 ± 0.18 |  | 
ESDSQGQGNGLFYSSGPQSWYPKA [ZC2HC1C] | 3.62 ± 0.32 | 3.72 ± 0.34 |  | 
ESGDEVPVELYTAFQHTPTSITLT [KMT2E] | 2.73 ± 0.97 | 3.65 ± 0.62 |  | 
ESSDDDSEEAPSTSGMGFHAPKIG [SDE2] | 5.51 ± 0.23 | 5.41 ± 0.19 |  | 
ETDEDEEEGDEQQRLLNTPRRKKL [GMCL1] | 5.6 ± 0.3 | 5.63 ± 0.28 |  | 
ETELSLRQLVEADINGLRRILDEL [KRT36] | 3.12 ± 0.3 | 3.36 ± 0.34 |  | 
ETENIIAANHWVLPAAEFHGLWDS [TRIP13] | 3.28 ± 0.29 | 3.36 ± 0.26 |  | 
ETPGSAVDYPLHDLVLHTNYTATV [TNXB] | 2.83 ± 0.18 | 2.87 ± 0.55 |  | 
ETTESQQNGEEGTSTPEDKESGQE [SMARCE1] | 5.61 ± 0.18 | 5.23 ± 0.17 |  | 
EVLDGVEDAEGEEEEEEEEEEEDD [FKBP8] | 5.46 ± 0.38 | 5.69 ± 0.23 |  | 
EVREPALRPAKRELRGAEPGRPAR [SPSB4] | 4.48 ± 0.39 | 4.9 ± 0.22 |  | 

Sequence | protein stability index [1] | protein stability index [2] | protein stability index [3] | protein stability index [4]
FCIDSENRIGNSGVEEIKGHPFFE [STK38L] | 2.97 ± 0.58 | 3.03 ± 0.18 |  | 
FEGFQAVSLKQEGDDQPSETDHLS [TPRG1] | 5.51 ± 0.17 | 5.54 ± 0.23 |  | 
FEGMAFLETEQGKPFVSVFRHLRL [GMCL1] | 2.66 ± 0.58 | 2.25 ± 0.31 |  | 
FFFLRMDENYNLLPHGVNFQDAIF [CCDC3] | 2.79 ± 0.43 | 2.97 ± 0.76 |  | 
FFKGGGSSKSRAAPSPQEALVRLR [CHMP4C] | 3.26 ± 0.053 | 3.33 ± 0.052 |  | 
FFMTATQYFTNRLDMSQNVSLVTA [SLC29A1] | 3.04 ± 0.4 | 2.92 ± 0.47 |  | 
FFYPLVEDPYMMGRIACANVLSDL [SEPHS2] | 2.38 ± 0.46 | 2.19 ± 0.47 |  | 
FGCEECGKKYNTMLGYKRHLALHA [PLAGL1] | 3.94 ± 0.12 | 3.97 ± 0.27 |  | 
FGGQDENKQTLSSGEKYDPDANTW [GAN] | 5.06 ± 0.074 | 5.01 ± 0.35 |  | 
FGHLINGAIAVFVYASDKEWIRFD [PTGFR] | 3.1 ± 0.29 | 3.1 ± 0.38 |  | 
FGIKCAKCQVGFSSSDLVMRARDS [ISL2] | 2.37 ± 0.32 | 2.54 ± 0.58 |  | 
FHINQTLREAHFHSLQHRGRPLT [FAM104A] |  |  | 2.3 ± 0.45 | 2.2 ± 0.29
FHYLVFDLVTGGELFEDIVAREYY [CAMK2B] | 3.21 ± 0.4 | 3.05 ± 1 |  | 
FKAHKSVLAARSPVFNAMFEHEME [SPOPL] | 3.17 ± 0.41 | 3.17 ± 0.32 |  | 
FKLKPLSNKTATDDTGGKDPRNV [PLD5] |  |  | 4.78 ± 0.17 | 4.89 ± 0.19
FKPKLYKGDRGLPLEGSAKGKVQA [RBBP5] | 3.96 ± 0.44 | 3.98 ± 0.27 |  | 
FLDLLSVFSDTATPDIKSHYAFRI [CIB1] | 2.86 ± 0.6 | 2.85 ± 0.76 |  | 
FLGLFFIVRFLESNWFVWVTQMNH [FADS1] | 3.69 ± 0.72 | 3.25 ± 0.32 |  | 
FLKNTEVSSMECEKNLYWICNKPY [CD69] | 2.32 ± 0.61 | 2.27 ± 0.21 |  | 
FNMMEQKKRVSMILQSPAFCEELE [ADD1] | 3.27 ± 0.088 | 3.4 ± 0.11 |  | 
FPDLNTYIYYNEKYGGPNHHLPLP [CPN1] | 2.15 ± 0.17 | 2.42 ± 0.096 |  | 
FPLMTIEEFAAGPAQSGILSDREV [BTBD1] | 3.83 ± 0.33 | 3.98 ± 0.18 |  | 
FPSLHQSLPQNQCYMATTKSQTAC [EHMT1] | 3.06 ± 0.15 | 3.47 ± 0.2 |  | 

Sequence | protein stability index [1] | protein stability index [2] | protein stability index [3] | protein stability index [4]
FQAPCQRCGKFLQDGLPPTWRDFR [MED27] | 2.56 ± 0.72 | 2.28 ± 0.33 |  | 
FQGQKTELNNCISMLVAGNDRVQT [TRIM63] | 3.13 ± 0.15 | 3.41 ± 0.42 |  | 
FQNAERAFKAAALIQRWYRRYVAR [PPEF2] |  | 5.54 ± 0.23 |  | 
FRALKRPLQFLGLFENSLCRLTHI [ZER1] | 2.62 ± 0.4 | 2.46 ± 0.54 |  | 
FSDLNSTRGDADMYDLPKKEDALL [EMD] | 4.77 ± 0.24 | 4.9 ± 0.05 |  | 
FSLRVHTGCHKKLGPEARRPRTRW | 2.66 ± 0.28 | 3.06 ± 0.094 |  | 
FSVAPHETQTQRGGEFQCGLEAAS [RNF180] | 3.37 ± 0.41 | 3.36 ± 0.14 |  | 
FTEAMTHFPASPFWSVMFFLMLIN [SLC6A17] | 2.36 ± 0.23 | 2.14 ± 0.56 |  | 
FTKNNFFVEKNPTIVNFPITNVDL [USP39] | 2.98 ± 0.52 | 2.7 ± 0.29 |  | 
FVMFLCLADYLVPILAPRIFGSNK [ARL6IP1] | 3.21 ± 0.48 | 3.17 ± 0.62 |  | 
FVQVKGNFARLQTCISELRMLQRE [M1AP] | 2.47 ± 0.75 | 2.11 ± 0.22 |  | 
FVRGQEFKAHKSVLAARSPVFNAM [SPOPL] | 2.66 ± 0.45 | 2.83 ± 0.34 |  | 
GACYGDDACFVARHRSADVLGVAD [PPTC7] | 4.18 ± 0.34 | 4.817 ± 0.045 |  | 
GAEQPPDLHCVLVTNPHSSQWKDP [GADD45A] | 4.29 ± 0.2 | 4.44 ± 0.12 |  | 
GAFDSQSTVKDCATIFALSTMTSS [ATL3] | 3.01 ± 0.25 | 3.19 ± 0.27 |  | 
GAIFCPPCYDVRYAPSCAKCKKKI [PDLIM7] | 3.16 ± 0.24 | 3.45 ± 0.34 |  | 
GARAALNEIESRHRELLRLESRIR [STX11] | 3.46 ± 0.26 | 3.72 ± 0.35 |  | 
GDDSDLSEGFESDSSHDSARASEG [SMG5] | 5.47 ± 0.3 | 5.48 ± 0.13 |  | 
GDLQDTKENREEARFQDKQYSSHH [CHGB] | 5.18 ± 0.21 | 5.02 ± 0.35 |  | 
GEGTFGKVVECLDHARGKSQVALK [CLK3] | 4.45 ± 0.33 | 4.66 ± 0.082 |  | 
GEGTGSPPKWQIGEQEFEALMRML [ADD1] | 3.29 ± 0.45 | 3.2 ± 0.31 |  | 
GEKPFTCHECGKKFSQNSHLIKHR [ZNF75A] | 3.44 ± 0.35 | 3.9 ± 0.56 |  | 
GELRSKSGHKLYIFLFQDILVLTR [NET1] | 2.5 ± 0.66 | 1.75 ± 0.27 |  | 

Sequence | protein stability index [1] | protein stability index [2] | protein stability index [3] | protein stability index [4]
GELSQARGQEPARADQLCQQELRE [PRPH] | 5.26 ± 0.56 | 5.56 ± 0.085 |  | 
GETDEVTKTEDRELVLRKDCPKIV [ZSCAN9] | 5.48 ± 0.14 | 5.44 ± 0.24 |  | 
GGAGKEGVRVNNRFELINIDDLED [TCF25] | 4.82 ± 0.49 | 4.91 ± 0.28 |  | 
GGDHRYVNNYTNSFGGEWSAPDTM [TRIM29] | 3.51 ± 0.44 | 3.51 ± 0.32 |  | 
GGGGGGGGKSGGIVISPFRLEELT [CCDC6] | 3.34 ± 0.12 | 3.59 ± 0.41 |  | 
GGGVATSPMLIVFHGKYSTINPLW [GLT8D2] | 3.02 ± 1.3 | 2.36 ± 0.56 |  | 
GGKYLGRTKVVKPYSTVDNPVYYG [EFHC1] | 2.87 ± 0.33 | 2.97 ± 0.33 |  | 
GGMQALGLHLTDPSQRLVQNCLWT [CTNNB1] | 2.11 ± 0.13 | 2.1 ± 0.44 |  | 
GGRALVVRKVPPGYSIKVFDFERS [SMAD6] | 2.52 ± 0.33 | 2.37 ± 0.51 |  | 
GGRRPGTSPALLQGTAEEDHVDLS [CDKN1A] | 5.46 ± 0.23 | 5.33 ± 0.18 |  | 
GGYFKARLKFPIDYPYSPPAFRFL [CDC34] | 2.82 ± 0.33 | 2.58 ± 0.51 |  | 
GHISLRRENSSDSPKELKRRNSSS [DLC1] | 5.03 ± 0.27 | 5.23 ± 0.15 |  | 
GHVLLTDSEFSMQEPMVPAKLGTQ [PPFIA4] | 4.31 ± 0.1 | 3.94 ± 0.26 |  | 
GHWTNVTPMATKRSGAGVALLNDH [KLHL12] | 3.48 ± 0.079 | 3.62 ± 0.085 |  | 
GIFQAMCLLICAEMYQVSRLQHIC [RHOBTB3] | 2.99 ± 0.59 | 3.09 ± 0.34 |  | 
GIGYNGMPNGCSDDVLPWRRTAEN [DCTD] | 3.03 ± 0.24 | 2.87 ± 0.1 |  | 
GKGFRDRNVTGTPLTGDKDDEEVD [ADAMTSL2] | 5.59 ± 0.21 | 5.51 ± 0.34 |  | 
GKPLAGIYRKREEKRNAGNAVRSA [KMT5A] | 4.24 ± 0.35 | 4.39 ± 0.19 |  | 
GLDFLHANCIVHRDLKPENILVTS [CDK4] | 2.49 ± 0.23 | 2.61 ± 0.4 |  | 
GLDIGAQGEPLGYRQDDPSYRSFH [CTNNB1] | 4.14 ± 0.12 | 4.22 ± 0.19 |  | 
